Source: PMC5839545 (2018)

Target: CENP-T (Homo sapiens, UniProt Q96BT3)
Assay: SW-FCCS

Sequence of CENP-T (Q96BT3 whole entry): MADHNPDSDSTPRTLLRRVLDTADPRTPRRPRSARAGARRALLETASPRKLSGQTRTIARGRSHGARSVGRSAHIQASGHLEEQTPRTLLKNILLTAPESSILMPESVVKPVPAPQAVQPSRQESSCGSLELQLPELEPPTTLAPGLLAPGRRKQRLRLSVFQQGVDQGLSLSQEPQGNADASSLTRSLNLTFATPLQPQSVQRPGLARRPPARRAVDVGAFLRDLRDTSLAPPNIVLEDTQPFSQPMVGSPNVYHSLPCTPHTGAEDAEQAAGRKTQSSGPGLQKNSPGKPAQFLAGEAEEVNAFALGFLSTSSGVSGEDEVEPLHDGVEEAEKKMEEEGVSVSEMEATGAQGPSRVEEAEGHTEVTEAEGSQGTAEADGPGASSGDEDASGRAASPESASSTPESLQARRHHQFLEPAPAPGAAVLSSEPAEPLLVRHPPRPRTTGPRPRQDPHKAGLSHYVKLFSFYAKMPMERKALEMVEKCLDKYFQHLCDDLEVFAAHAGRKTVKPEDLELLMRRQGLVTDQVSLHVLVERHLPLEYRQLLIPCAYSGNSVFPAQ

Kd: 1.8 µM
B1: Spc24 (protein)
chain: MAAFRDIEEVSQGLLSLLGANRAEAQQRRLLGRHEQVVERLLETQDGAEKQLREILTMEKEVAQSLLNAKEQVHQGGVELQQLEAGLQEAGEEDTRLKASLLQLTRELEELKEIEADLERQEKEVDEDTTVTIPSAVYVAQLYHQVSKIEWDYECEPGMVKGIHHGPSVAQPIHLDSTQLSRKFISDYLWSLVDTEW
